Measurements reported in patent publication US20080254496A1, “Methods for Detection of Fungal Disease” (priority 2005, published 2008).

Assay: D-arabinitol oxidase enzyme activity assay (H2O2 formation coupled to horse radish peroxidase/TMB, absorbance at 650 nm)
Type: biochemical
Settings: ratio of oxidase activity with sorbitol as substrate to DA as substrate; protein extracts from E. coli, 10 mM sugar alcohol, pH 6.5, 23° C.
Experimental: The D-arabinitol oxidase enzyme activity is assayed by the formation of H2O2 during the enzyme reaction (FIG. 1) as coupled with a peroxidase indicator reaction that catalyzes the oxidation of 3,3′,5,5′-tetramethylbenzidine hydrochloride (TMB), producing a colored product. An increase in absorbance is a direct measure of D-arabinitol oxidase activity. Enzyme activity is assayed in crude extracts and in purified protein preparations. […] In this reaction, formation of H2O2 results in the formation of blue color measurable by reading the absorbance at 650 nanometers (nm). Absorbance at 650 nm is followed kinetically using a Tecan Rainbow spectrophotometer at room temperature (23° C.). Milli-absorbance units per minute (mA/min) are calculated as the increase in absorbance at 650 nm/minute×1000. It is recognized that researchers skilled in the art may perform the assay as an end-point assay, by stopping reactions at various times with a solution of acid to produce a yellow color, and reading the absorbance at 450 nm. […]
DNA sequences encoding an SaOx protein (SEQ ID NO:3) are used as starting material for error prone PCR. Error-prone PCR is accomplished by performing PCR from DNA templates using a non-proof reading DNA polymerase such as Taq Polymerase, or by using a GeneMorph II Random Mutagenesis Kit (Stratagene). […]

B1: SaOX (wild type + His-tag): Streptomyces avermitilis oxidase (SEQ ID NO:4), wild type with C-terminal His-tag (STOP423LEHHHHHH) (protein, listed as Streptomyces avermitilis)
chain: MTDAGTALTNWAGNITYSAKELHRPQSLDALRALVADSAKVRVLGSGHSFNEIAEPGADGVLLSLTALPPSVEVDTAARTVRVAGGVRYAELARVVHGHGLALPNMASLPHISVAGSVATGTHGSGVTNGSLASAVREVELVTADGSAVRIGRGDDRFDGAVTALGALGVVTALTLDLEPDYRVAQQVFTELPLAGLDFDAVAASAYSVSLFTGWRTSGFAQVWLKRRTDRPSADFPWAAPATEAMHPVPGMPAVNCTQQFGVPGPWHERLPHFRAEFTPSSGAELQSEYLLPRPYALDALHALDAVRETVAPVLQICEVRTVAADAQWLSPAYGRDTVALHFTWVEDLAAVLPVVRRVEEALDPFDPRPHWGKVFAVPARVLRGRYPRLGDFRALVDSLDPGGKFTNAFVREVLGSGDRPS
modifications: C-terminal LEHHHHHH His-tag
**Q.** For B1, which Sorb/DA is on record?
**A.** The Sorb/DA was 14.8.
